The source of these data is the supplement of paper PMC10724198.

This data set relates to Saccharomyces cerevisiae. Kind of data set: protein stability index of tFT-peptide fusion (C-terminal peptide) (PSI (0-1 scale)); higher = more stable (slower turnover). The conditions noted are these: temperature: 30 C. The procedure:
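MPS profiling in S. cerevisiae of the yeast C-terminome library: the last 12 aa of each annotated ORF are fused to the C-terminus of a sfGFP-mCherry timer, after a GGGS linker. Cells are FACS-sorted into 8 mCherry/sfGFP bins and deep-sequenced. PSI runs from 0 (unstable) to 1 (stable); wild type and das1Δ backgrounds, two technical replicates each.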

The mark [1] stands for this setting: genetic background: das1 deletion.

± gives the standard deviation of the averaged measurements.

For the sequence RSIRWFREAGGK [SKI8 C-terminal 12 aa], the protein stability index is 0.695 ± 0.018 under setting [1] and 0.7202 ± 0.0028 (genetic background: wild type).

On to RSKYGAKKPSKS [MRPS12 C-terminal 12 aa], for which the protein stability index by setting is: under setting [1], 0.6815 ± 0.0025; (genetic background: wild type) 0.6855 ± 0.0067.

As to RSNAERKRRSPL [PBP2 C-terminal 12 aa], the protein stability index was found to be 0.7121 ± 0.0039 under setting [1] and 0.68 ± 0.021 (genetic background: wild type).

For RSTNGRPQRGYR [YLR326W C-terminal 12 aa], the protein stability index turned out to be 0.675 ± 0.027 under setting [1] and 0.664 ± 0.0025 (genetic background: wild type).

In the case of RSWDEFIGFKAY [CPA2 C-terminal 12 aa], the protein stability index came to 0.745 ± 0.03 under setting [1] and 0.615 ± 0.041 (genetic background: wild type).

On to RTAAESIANDRK [FRD1 C-terminal 12 aa], for which the protein stability index runs as follows: under setting [1], 0.674 ± 0.0068; (genetic background: wild type) 0.708 ± 0.05.

For the sequence RTLGYSNNNGNN [UBX6 C-terminal 12 aa], the protein stability index is, setting by setting: under setting [1], 0.679 ± 0.019; (genetic background: wild type) 0.678 ± 0.0087.

Take RTNHIYNYENSD [DFG16 C-terminal 12 aa]: the protein stability index reads like this: under setting [1], 0.703 ± 0.0077; (genetic background: wild type) 0.672 ± 0.011.

RVRTLARKHLSK [TRS20 C-terminal 12 aa] yielded a protein stability index under setting [1] of 0.692 ± 0.02 and a protein stability index (genetic background: wild type) of 0.686 ± 0.018.

Take SAEGSDVLYMQK [LSM7 C-terminal 12 aa]: the protein stability index under setting [1] is 0.671 ± 0.0093 and the protein stability index (genetic background: wild type) turned out to be 0.6739 ± 0.0053.

Consider SAENEESKEKCE [LAG1 C-terminal 12 aa], for which the protein stability index by setting is: under setting [1], 0.696 ± 0.051; (genetic background: wild type) 0.658 ± 0.021.

On to SAIGSDIVNSIF [LSB1 C-terminal 12 aa], for which the protein stability index runs as follows: under setting [1], 0.7044 ± 0.0053; (genetic background: wild type) 0.676 ± 0.024.

Consider SAQRDRRYRKRV [RPS17A C-terminal 12 aa], for which the protein stability index is, setting by setting: under setting [1], 0.6665 ± 0.0025; (genetic background: wild type) 0.69 ± 0.067.

With SCGCGSSFDIEN [ISA2 C-terminal 12 aa], the protein stability index reads like this: under setting [1], 0.704 ± 0.015; (genetic background: wild type) 0.632 ± 0.0093.

For the sequence SDDDVSSESEEE [BDF1 C-terminal 12 aa], the protein stability index reads like this: under setting [1], 0.6997 ± 0.0067; (genetic background: wild type) 0.658 ± 0.015.

For “SDGFANNRCQRK [YOR034C-A C-terminal 12 aa]”, the protein stability index is, setting by setting: under setting [1], 0.658 ± 0.0075; (genetic background: wild type) 0.718 ± 0.051.

SDVISEESYNEA [SVF1 C-terminal 12 aa] returned a protein stability index under setting [1] of 0.7069 ± 0.0026 and a protein stability index (genetic background: wild type) of 0.694 ± 0.0074.

On to SELQQIFPVSQQ [SPS100 C-terminal 12 aa], for which the protein stability index is, setting by setting: under setting [1], 0.706 ± 0.011; (genetic background: wild type) 0.689 ± 0.033.

Turning to SEPTNDDLDATK [MRX10 C-terminal 12 aa], the protein stability index runs as follows: under setting [1], 0.678 ± 0.033; (genetic background: wild type) 0.675 ± 0.019.

With SESNDGESSDSD [RPA43 C-terminal 12 aa], the protein stability index was 0.656 ± 0.021 under setting [1] and 0.7176 ± 0.0024 (genetic background: wild type).

With SFKAYVGLPTTG [PIC2 C-terminal 12 aa], the protein stability index runs as follows: under setting [1], 0.706 ± 0.01; (genetic background: wild type) 0.693 ± 0.009.

For SFPVVEPMGGST [BDS1 C-terminal 12 aa], the protein stability index is, setting by setting: under setting [1], 0.69 ± 0.012; (genetic background: wild type) 0.727 ± 0.014.

Turning to SFRPKSSNNPFR [ENT4 C-terminal 12 aa], the protein stability index came out at 0.734 ± 0.02 under setting [1] and 0.674 ± 0.021 (genetic background: wild type).

Take SFRSSHFYSLIA [YLR217W C-terminal 12 aa]: the protein stability index is, setting by setting: under setting [1], 0.691 ± 0.012; (genetic background: wild type) 0.331 ± 0.016.

SFTHQEQDTEMN [NAB2 C-terminal 12 aa]: the protein stability index is 0.708 ± 0.032 under setting [1] and 0.736 ± 0.019 (genetic background: wild type).

SFVTKKKAACYR [YIL025C C-terminal 12 aa]: the protein stability index is 0.717 ± 0.011 under setting [1] and 0.706 ± 0.0072 (genetic background: wild type).

As to SGIVENDFENRS [YOR1 C-terminal 12 aa], the protein stability index by setting is: under setting [1], 0.707 ± 0.013; (genetic background: wild type) 0.705 ± 0.084.

In the case of SGKLASKKRDKK [MRPL36 C-terminal 12 aa], the protein stability index under setting [1] was determined as 0.684 ± 0.021 and the protein stability index (genetic background: wild type) stood at 0.651 ± 0.019.

As to SHHPHKNGKISF [YKR011C C-terminal 12 aa], the protein stability index worked out at 0.719 ± 0.028 under setting [1] and 0.69647 ± 0.00034 (genetic background: wild type).

For the sequence SHPIDVNLQFIM [MCA1 C-terminal 12 aa], the protein stability index by setting is: under setting [1], 0.735 ± 0.013; (genetic background: wild type) 0.689 ± 0.039.

Turning to SISHPENKVLHK [YNL195C C-terminal 12 aa], the protein stability index under setting [1] was determined as 0.689 ± 0.0083 and the protein stability index (genetic background: wild type) turned out to be 0.699 ± 0.0077.

Sequence SIVYSWKENSSS [YGL217C C-terminal 12 aa] returned a protein stability index under setting [1] of 0.704 ± 0.031 and a protein stability index (genetic background: wild type) of 0.703 ± 0.015.

As for SKGKNSESGGIF [PPR1 C-terminal 12 aa], the protein stability index reads like this: under setting [1], 0.699 ± 0.026; (genetic background: wild type) 0.711 ± 0.054.

Regarding SKKSKKSKKSEE [MRH1 C-terminal 12 aa], the protein stability index by setting is: under setting [1], 0.719 ± 0.0089; (genetic background: wild type) 0.695 ± 0.053.

For the sequence SKNDSPKKKGWF [MAS2 C-terminal 12 aa], the protein stability index reads like this: under setting [1], 0.694 ± 0.027; (genetic background: wild type) 0.702 ± 0.018.

On to SLDVGKILDVTI [PSR1 C-terminal 12 aa], for which the protein stability index runs as follows: under setting [1], 0.686 ± 0.012; (genetic background: wild type) 0.662 ± 0.038.

With SLFPSLETEDKK [MIH1 C-terminal 12 aa], the protein stability index is, setting by setting: under setting [1], 0.674 ± 0.0077; (genetic background: wild type) 0.671 ± 0.02.

SLGSVFTILTDS [YGR228W C-terminal 12 aa] displayed a protein stability index under setting [1] of 0.72 ± 0.0074 and a protein stability index (genetic background: wild type) of 0.7206 ± 0.0043.

SLKDLIMQVTKM [CTO1 C-terminal 12 aa]: the protein stability index by setting is: under setting [1], 0.753 ± 0.046; (genetic background: wild type) 0.654 ± 0.069.

Take SLLFVGPLFLKV [YCL007C C-terminal 12 aa]: the protein stability index by setting is: under setting [1], 0.401 ± 0.016; (genetic background: wild type) 0.423 ± 0.012.

For SLRPQERNLYGL [NTH1 C-terminal 12 aa], the protein stability index was found to be 0.691 ± 0.021 under setting [1] and 0.753 ± 0.095 (genetic background: wild type).

For the sequence SLYMNISYILLF [YGR073C C-terminal 12 aa], the protein stability index under setting [1] turned out to be 0.44985 ± 0.00042 and the protein stability index (genetic background: wild type) is 0.2066 ± 0.0013.

As for SMKPFKRRKPFF [PRP16 C-terminal 12 aa], the protein stability index runs as follows: under setting [1], 0.69 ± 0.0092; (genetic background: wild type) 0.72 ± 0.0089.

With SNNATHNCGNYF [YGR122W C-terminal 12 aa], the protein stability index turned out to be 0.712 ± 0.049 under setting [1] and 0.764 ± 0.01 (genetic background: wild type).

In the case of SNPSSHIKKKGL [RRT6 C-terminal 12 aa], the protein stability index is, setting by setting: under setting [1], 0.682 ± 0.014; (genetic background: wild type) 0.6362 ± 0.0061.

In the case of SNRTLSNETDAL [ACE2 C-terminal 12 aa], the protein stability index reads like this: under setting [1], 0.7072 ± 0.0038; (genetic background: wild type) 0.701 ± 0.016.

As to SPGYKAYLREER [YSF3 C-terminal 12 aa], the protein stability index reads like this: under setting [1], 0.722 ± 0.012; (genetic background: wild type) 0.685 ± 0.019.

In the case of SPPLSTSPDSRR [YLR416C C-terminal 12 aa], the protein stability index under setting [1] was 0.7198 ± 0.0012 and the protein stability index (genetic background: wild type) was found to be 0.713 ± 0.029.

On to SPRLKENEHVTN [MPC54 C-terminal 12 aa], for which the protein stability index came out at 0.693 ± 0.013 under setting [1] and 0.724 ± 0.072 (genetic background: wild type).

As for SPYLKHLDSRKQ [CTS2 C-terminal 12 aa], the protein stability index was found to be 0.722 ± 0.019 under setting [1] and 0.7 ± 0.045 (genetic background: wild type).

Consider SQEPQYKLFRGR [MRPL16 C-terminal 12 aa], for which the protein stability index is, setting by setting: under setting [1], 0.6988 ± 0.0014; (genetic background: wild type) 0.731 ± 0.069.

Take SQNELRFEERLL [INO1 C-terminal 12 aa]: the protein stability index is 0.683 ± 0.021 under setting [1] and 0.675 ± 0.025 (genetic background: wild type).

The sequence SRIKWHVGTAYS [HHY1 C-terminal 12 aa] gave a protein stability index under setting [1] of 0.6943 ± 0.0031 and a protein stability index (genetic background: wild type) of 0.6653 ± 0.0066.

Regarding SRVGRKVATLDQ [YAT2 C-terminal 12 aa], the protein stability index is, setting by setting: under setting [1], 0.6994 ± 0.0069; (genetic background: wild type) 0.694 ± 0.038.

SSKGFFSKLGCC [YCK2 C-terminal 12 aa]: the protein stability index is, setting by setting: under setting [1], 0.692 ± 0.0099; (genetic background: wild type) 0.677 ± 0.011.

Consider SSSNKSQRNGRY [AIR1 C-terminal 12 aa], for which the protein stability index runs as follows: under setting [1], 0.712 ± 0.011; (genetic background: wild type) 0.68967 ± 0.00054.

With SSSSTSVNKTLD [VIP1 C-terminal 12 aa], the protein stability index by setting is: under setting [1], 0.734 ± 0.04; (genetic background: wild type) 0.707 ± 0.053.

With SSTTEETILVRK [RKM1 C-terminal 12 aa], the protein stability index by setting is: under setting [1], 0.689 ± 0.023; (genetic background: wild type) 0.7025 ± 0.0051.

In the case of STCIYLYTHNSM [YBR206W C-terminal 12 aa], the protein stability index under setting [1] was determined as 0.672 ± 0.027 and the protein stability index (genetic background: wild type) stood at 0.673 ± 0.023.

As to STHIDHDKFSFF [CDC8 C-terminal 12 aa], the protein stability index reads like this: under setting [1], 0.7087 ± 0.0024; (genetic background: wild type) 0.694 ± 0.021.

On to STQHKSTTSFTQ [TGL4 C-terminal 12 aa], for which the protein stability index under setting [1] was 0.716 ± 0.035 and the protein stability index (genetic background: wild type) amounted to 0.655 ± 0.022.

In turn, STTTVIQGEINK [LRG1 C-terminal 12 aa] came in with a protein stability index under setting [1] of 0.671 ± 0.049 and a protein stability index (genetic background: wild type) of 0.713 ± 0.036.

Regarding SVESLMTQQDVE [BIO4 C-terminal 12 aa], the protein stability index under setting [1] is 0.691 ± 0.011 and the protein stability index (genetic background: wild type) was found to be 0.6941 ± 0.0037.

For the sequence SVLKRVRKLFGE [VMA7 C-terminal 12 aa], the protein stability index is, setting by setting: under setting [1], 0.712 ± 0.004; (genetic background: wild type) 0.684 ± 0.02.

For SWETKLKQNILE [CSN9 C-terminal 12 aa], the protein stability index runs as follows: under setting [1], 0.7156 ± 0.0054; (genetic background: wild type) 0.6441 ± 0.0042.

Regarding SWISNNTNVPKK [ARF3 C-terminal 12 aa], the protein stability index by setting is: under setting [1], 0.6958 ± 0.0013; (genetic background: wild type) 0.678 ± 0.011.

In turn, SYFNTIMHNCKP [SET4 C-terminal 12 aa] yielded a protein stability index under setting [1] of 0.72482 ± 0.00043 and a protein stability index (genetic background: wild type) of 0.715 ± 0.0071.
